In US20180327501A1 (CARSGEN THERAPEUTICS, published 2018):

Tests used:
[1] = molecular target: EGFR on the cell surface (human) (UniProt P00533); assay: FACS on CAL 27 cells, method of Example 9; PBS control 3.11
[2] = molecular target: T1, EGFRvIII on U87-EGFRvIII cells (human, UniProt P00533 25-1210); assay: FACS on U87MG-EGFRvIII cells, method of Example 9; PBS control 1
T1 construct: whole, on cells; EGFRvIII is a deletion variant of it; also called U87MG-EGFRvIII; mutant human EGFR

N1N2 (control protein) = molecular target: T2, N1N2 (control protein) (M13 phage, UniProt P69168 19-235, limits assumed); assay: single phage ELISA, 100 ng/well coated protein
T2 construct: domain: N1N2 domain; Negative control protein in the phage ELISA
T2 sequence (P69168 19-235 limits assumed): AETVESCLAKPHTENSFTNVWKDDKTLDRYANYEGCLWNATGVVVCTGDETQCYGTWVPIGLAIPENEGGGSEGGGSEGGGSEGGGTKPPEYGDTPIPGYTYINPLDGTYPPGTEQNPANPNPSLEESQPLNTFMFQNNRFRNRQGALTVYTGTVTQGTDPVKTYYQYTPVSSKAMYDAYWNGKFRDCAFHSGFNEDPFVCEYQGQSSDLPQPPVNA
Protocol: (§1) Each well was blocked with PBST containing 2% BSA (w/v). The wells were then washed with PBST for three times. Then, each phage solution prepared above was added to each well of the plate at 100 μl/well. After incubation for 2 hours at 37° C., it was washed for three times with PBST. To detect bound phage, anti-M13 antibody […] conjugate (purchased from GE Healthcare) was diluted at 1:5000 in PBST and 100 μl was added to each well. After incubating at 37° C. for 1 hour, the wells were rinsed for three times with PBST and then rinsed for three times with PBS. Finally, 50 μl of TMB substrate was added into the wells and developed for 10 minutes at room temperature, followed by addition of 50 μl of 2M H₂SO₄ per well to stop the color reaction. Extinction values were measured at 450 nm with an enzyme-linked immunosorbent (Bio-Rad).
(§2) All of the altered amino acid positions include S31 in the light chain CDR1 region, V89, A92, Q93, F94 and Y96 in the light chain CDR3 region, 5182 in the heavy chain CDR2 region, L222, R224, G225, F226 and R227 in the heavy chain CDR3 region.

[3] = molecular target: T3, BSA (bovine serum albumin) (bovine, UniProt P02769 25-607); assay: single phage ELISA, 100 ng/well coated protein
T3 construct: Negative control protein in the phage ELISA
T3 sequence (P02769 25-607 limits assumed): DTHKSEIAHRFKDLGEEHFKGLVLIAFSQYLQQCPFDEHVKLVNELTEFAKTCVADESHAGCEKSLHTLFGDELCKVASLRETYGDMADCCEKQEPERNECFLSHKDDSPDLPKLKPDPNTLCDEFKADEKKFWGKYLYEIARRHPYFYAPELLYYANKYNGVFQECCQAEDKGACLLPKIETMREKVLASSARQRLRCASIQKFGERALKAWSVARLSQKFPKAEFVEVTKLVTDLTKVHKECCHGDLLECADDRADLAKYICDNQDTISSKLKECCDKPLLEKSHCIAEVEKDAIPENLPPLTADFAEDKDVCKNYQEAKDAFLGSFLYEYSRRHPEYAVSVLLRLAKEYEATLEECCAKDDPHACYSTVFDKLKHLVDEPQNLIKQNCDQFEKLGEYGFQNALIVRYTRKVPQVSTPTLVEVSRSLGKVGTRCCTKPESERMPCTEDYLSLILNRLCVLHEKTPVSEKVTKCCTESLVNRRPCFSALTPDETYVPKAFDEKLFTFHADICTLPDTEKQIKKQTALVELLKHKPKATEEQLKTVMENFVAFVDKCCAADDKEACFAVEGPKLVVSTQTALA
Protocol: as §1, §2

[4] = molecular target: T1, EGFRvIII on U87-EGFRvIII cells; assay: FACS on U87-EGFRvIII cells, 20 µg/ml
Protocol: 2) Cells were digested with 10 mM EDTA and cells were collected by centrifugation at 200 g for 5 min. Cells were resuspended in 1% phosphate buffered saline (NBS PBS) containing calf serum at a concentration of 1×10⁶ to 1×10⁷/mL, and added in a flow tube in an amount of 100 μl/tube.
And PBS was used as a negative control. The final concentration of antibody was 20 μg/ml, 100 μl was added to each tube and placed in an ice bath for 45 minutes.

[5] = molecular target: T4, antigen EGFRvIII (purchased protein) (UniProt P00533 25-645, limits assumed); assay: concentration gradient ELISA, EGFRvIII coated 200 ng/well, anti-His-tag detection, non-linear fit
T4 construct: also called EGFRvIII antigen; biotin-labeled antigen EGFRvIII
Protocol: Binding activity of an antibody to antigen EGFRvIII was determined by concentration gradient ELISA assay. For this purpose, the antigen EGFRvIII was diluted with 0.1 M NaHCO₃ (pH 9.6) coating solution and each well was coated with 200 ng at 50 μl/well overnight at 4° C. and blocked with PBST containing 2% (w/v) BSA for 2 hours at room temperature. The plate was then rinsed for three times with PBST. […] After incubation for 2 hours at 37° C., plate was rinsed for three times with PBST followed by adding 100 μl/well of a 1:2000 dilution of mouse anti-His-tag antibody (available from Santa cruz) for 1 hour at 37° C. To test the bound antibody, HRP-labeled goat anti-mouse antibody (purchased from Santa Cruz) was diluted in PBST at a 1:15,000 dilution and 100 μl per well was added and incubated at 37° C. for 1 hour. […] The chromogenic reaction was stopped with 50 μl of 2 M H₂SO₄ per well and extinction value was measured at 450 nm using enzyme-linked immunoassay (Bio-Rad). The absorbance values obtained were evaluated using Sigma Plot software and the binding strength of an antibody was calculated. For this purpose, the extinction value measured in each case was plotted against the corresponding antibody concentration and the resulting curve was fitted using the following non-linear regression.

| Binder | mean fluorescence intensity (MFI) [1] | mean fluorescence intensity (MFI) [2] | further results |
| --- | --- | --- | --- |
| M14/CD3 single chain bifunctional antibody (bispecific antibody, part only; not given: linker, anti-CD3 scFv, His tag, not shown: another chain or arm of the molecule) DIQMTQSPSSLSASVGDRVTITCHASQDINSNIGWLQQKPGKAFKGLIYHGKNLEDGVPSRFSGSGSGTDFTLTISSLQPEDFATYYCNQYENNPITFGQGTKVEIKRGGGGSGGGGSGGGGSDVQLVESGGGLVQPGGSLRLSCAVSGYSITSDYAWNWIRQAPGKGLEWLGYISYRGRTNYNPSLKSRISITRDNSKNTFFLQLNSLRAEDTAVYYCARLGRGFRYWGQGTLVTVSS | 28.4 | 36.5 | – |
| S17/CD3 single chain bifunctional antibody (bispecific antibody, part only; not given: linker, anti-CD3 scFv, His tag, not shown: another chain or arm of the molecule) DIQMTQSPSSLSASVGDRVTITCHASQDINTNIGWLQQKPGKAFKGLIYHGKNLEDGVPSRFSGSGSGTDFTLTISSLQPEDFATYYCNQYENNPLTFGQGTKVEIKRGGGGSGGGGSGGGGSDVQLVESGGGLVQPGGSLRLSCAVSGYSITSDYAWNWIRQAPGKGLEWLGYISYRGRTQYNPSLKSRISITRDNSKNTFFLQLNSLRAEDTAVYYCARLGRGFRYWGQGTLVTVSS | 25 | 31.6 | – |
| S22/CD3 single chain bifunctional antibody (bispecific antibody, part only; not given: linker, anti-CD3 scFv, His tag, not shown: another chain or arm of the molecule) DIQMTQSPSSLSASVGDRVTITCHASQDINVNIGWLQQKPGKAFKGLIYHGTNLEDGVPSRFSGSGSGTDFTLTISSLQPEDFATYYCNQYENNPLTFGQGTKVEIKRGGGGSGGGGSGGGGSDVQLVESGGGLVQPGGSLRLSCAVSGYSITSDYAWNWIRQAPGKGLEWLGYISYRGRTRYNPSLKSRISITRDNSKNTFFLQLNSLRAEDTAVYYCARLGRGFRYWGQGTLVTVSS | 24.6 | 31.3 | – |
| M15/CD3 single chain bifunctional antibody (bispecific antibody, part only; not given: linker, anti-CD3 scFv, His tag, not shown: another chain or arm of the molecule) DIQMTQSPSSLSASVGDRVTITCHASQDINVNIGWLQQKPGKAFKGLIYHGKNLEDGVPSRFSGSGSGTDFTLTISSLQPEDFATYYCNQYENNPITFGQGTKVEIKRGGGGSGGGGSGGGGSDVQLVESGGGLVQPGGSLRLSCAVSGYSITSDYAWNWIRQAPGKGLEWLGYISYRGRTSYNPSLKSRISITRDNSKNTFFLQLNSLRAEDTAVYYCARLGRGFRYWGQGTLVTVSS | 29.4 | 37.9 | – |
| S7/CD3 single chain bifunctional antibody (bispecific antibody, part only; not given: linker, anti-CD3 scFv, His tag, not shown: another chain or arm of the molecule) DIQMTQSPSSLSASVGDRVTITCHASQDINVNIGWLQQKPGKAFKGLIYHGTNLEDGVPSRFSGSGSGTDFTLTISSLQPEDFATYYCNQYENNPITFGQGTKVEIKRGGGGSGGGGSGGGGSDVQLVESGGGLVQPGGSLRLSCAVSGYSITSDYAWNWIRQAPGKGLEWLGYISYRGRTSYNPSLKSRISITRDNSKNTFFLQLNSLRAEDTAVYYCARLGRGFRYWGQGTLVTVSS | 27.9 | 42.2 | – |
| M25/CD3 single chain bifunctional antibody (bispecific antibody, part only; not given: linker, anti-CD3 scFv, His tag, not shown: another chain or arm of the molecule) DIQMTQSPSSLSASVGDRVTITCHASQDINVNIGWLQQKPGKAFKGLIYHGKNLEDGVPSRFSGSGSGTDFTLTISSLQPEDFATYYCNQYENIPLTFGQGTKVEIKRGGGGSGGGGSGGGGSDVQLVESGGGLVQPGGSLRLSCAVSGYSITSDYAWNWIRQAPGKGLEWLGYISYRGRTRYNPSLKSRISITRDNSKNTFFLQLNSLRAEDTAVYYCARLGRGFRYWGQGTLVTVSS | 24.1 | 36.5 | – |
| S23/CD3 single chain bifunctional antibody (bispecific antibody, part only; not given: linker, anti-CD3 scFv, His tag, not shown: another chain or arm of the molecule) DIQMTQSPSSLSASVGDRVTITCHASQDINVNIGWLQQKPGKSFKGLIYHGKNLEDGVPSRFSGSGSGTDFTLTISSLQPEDFATYYCNQYENNPLTFGQGTKVEIKRGGGGSGGGGSGGGGSDVQLVESGGGLVQPGGSLRLSCAVSGYSITSDYAWNWIRQAPGKGLEWLGYISYRGRTRYNPSLKSRISITRDNSKNTFFLQLNSLRAEDTAVYYCARLGRGFRYWGQGTLVTVSS | 29.7 | 32.2 | – |
| S29/CD3 single chain bifunctional antibody (bispecific antibody, part only; not given: linker, anti-CD3 scFv, His tag, not shown: another chain or arm of the molecule) DIQMTQSPSSLSASVGDRVTITCHASQDINVNIGWLQQKPGKAFKGLIYHGKNLEDGVPSRFSGSGSGTDFTLTISSLQPEDFATYYCNQYENFPLTFGQGTKVEIKRGGGGSGGGGSGGGGSDVQLVESGGGLVQPGGSLRLSCAVSGYSITSDYAWNWIRQAPGKGLEWLGYISYRGRTRYNPSLKSRISITRDNSKNTFFLQLNSLRAEDTAVYYCARLGRGFRYWGQGTLVTVSS | 25.7 | 34.6 | – |
| S8/CD3 single chain bifunctional antibody (bispecific antibody, part only; not given: linker, anti-CD3 scFv, His tag, not shown: another chain or arm of the molecule) DIQMTQSPSSLSASVGDRVTITCHASQDINVNIGWLQQKPGKSFKGLIYHGKNLEDGVPSRFSGSGSGTDFTLTISSLQPEDFATYYCNQYENNPITFGQGTKVEIKRGGGGSGGGGSGGGGSDVQLVESGGGLVQPGGSLRLSCAVSGYSITSDYAWNWIRQAPGKGLEWLGYISYRGRTSYNPSLKSRISITRDNSKNTFFLQLNSLRAEDTAVYYCARLGRGFRYWGQGTLVTVSS | 30 | 38.5 | – |
| M26/CD3 single chain bifunctional antibody (bispecific antibody, part only; not given: linker, anti-CD3 scFv, His tag, not shown: another chain or arm of the molecule) DIQMTQSPSSLSASVGDRVTITCHASQDINVNIGWLQQKPGKAFKGLIYHGKNLEDGVPSRFSGSGSGTDFTLTISSLQPEDFATYYCNQYENIPLTFGQGTKVEIKRGGGGSGGGGSGGGGSDVQLVESGGGLVQPGGSLRLSCAVSGYSITSDYAWNWIRQAPGKGLEWLGYISYRGRTQYNPSLKSRISITRDNSKNTFFLQLNSLRAEDTAVYYCARLGRGFRYWGQGTLVTVSS | 24.6 | 41.4 | – |
| single chain antibody Y022 displayed on phage (scFv, 12 mutations against 7B3; not shown: fusion to M13 phage coat protein from phagemid pCANTAB 5E (pCantab 5E-Y022)) scFv: DIQMTQSPSSLSASVGDRVTITCHASQDINVNIGWLQQKPGKAFKGLIYHGKNLEDGVPSRFSGSGSGTDFTLTISSLQPEDFATYYCNQYENIPLTFGQGTKVEIKRGGGGSGGGGSGGGGSDVQLVESGGGLVQPGGSLRLSCAVSGYSITSDYAWNWIRQAPGKGLEWLGYISYRGRTQYNPSLKSRISITRDNSKNTFFLQLNSLRAEDTAVYYCARMGKNWDYWGQGTLVTVSS | – | – | binding result (N1N2 (control protein)): no binding; binding result [3]: no binding |
| scFv-Y022-Fc (Fc fusion, Expressed in HEK-293F cells, protein A purified; also called single chain antibody Y022; V5-scFv-Y022-Fc; not shown: Fc fragment of human IgG1 from vector pCMV-V5-Fc, fused downstream of the multiple cloning site; limits and junction res) DIQMTQSPSSLSASVGDRVTITCHASQDINVNIGWLQQKPGKAFKGLIYHGKNLEDGVPSRFSGSGSGTDFTLTISSLQPEDFATYYCNQYENIPLTFGQGTKVEIKRGGGGSGGGGSGGGGSDVQLVESGGGLVQPGGSLRLSCAVSGYSITSDYAWNWIRQAPGKGLEWLGYISYRGRTQYNPSLKSRISITRDNSKNTFFLQLNSLRAEDTAVYYCARMGKNWDYWGQGTLVTVSS | – | – | binding result [4]: binds |
| antibody 7B3, single chain antibody with carboxy-terminal 6xhistidine, produced in E. coli (scFv) scFv: DIQMTQSPSSLSASVGDRVTITCHASQDINSNIGWLQQKPGKAFKGLIYHGKNLEDGVPSRFSGSGSGTDFTLTISSLQPEDFATYYCVQYAQFPYTFGQGTKVEIKRGGGGSGGGGSGGGGSDVQLVESGGGLVQPGGSLRLSCAVSGYSITSDYAWNWIRQAPGKGLEWLGYISYRGRTSYNPSLKSRISITRDNSKNTFFLQLNSLRAEDTAVYYCARLGRGFRYWGQGTLVTVSSHHHHHH | – | – | Kd [5]: ~22.4 nM |
| antibody Y022, single chain antibody with carboxy-terminal 6xhistidine, produced in E. coli (scFv) scFv: DIQMTQSPSSLSASVGDRVTITCHASQDINVNIGWLQQKPGKAFKGLIYHGKNLEDGVPSRFSGSGSGTDFTLTISSLQPEDFATYYCNQYENIPLTFGQGTKVEIKRGGGGSGGGGSGGGGSDVQLVESGGGLVQPGGSLRLSCAVSGYSITSDYAWNWIRQAPGKGLEWLGYISYRGRTQYNPSLKSRISITRDNSKNTFFLQLNSLRAEDTAVYYCARMGKNWDYWGQGTLVTVSSHHHHHH | – | – | Kd [5]: ~2.7 nM |
